Laboratory results: the supplement of paper PMC7877785
± gives the uncertainty stated by the source.

Assay: self-splicing fitness, log relative to wild type (ln ratio); higher = more splicing; Tetrahymena group I intron in knt gene, E. coli kanamycin selection, DiMSum; sequences stand for … in CUCUCU…GGAGGGAAAAGUUAUCAGGCAUGCACCUGGUAGCUAGUCUUUAAACCAAUAGAUUGCAUCGGUUUAAAAGGCAAGACCGUCAAAUUGCGGGAAAGGGGUCAACAGCCGUUCAGUACCAAGUCUCAGGGGAAACUUUGAGAUGGCCUUGCAAAGGGUAUGGUAAUAAGCUGACGGACAUGGUCCUAACCACGCAGCCAAGUCCUAAGUCAACAGAUCUUCUGUUGAUAUGGAUGCAGUUCACAGACUAAAUGUCGGUCGGGGAAGAUGUAUUCUUCUCAUAAGAUAUAGUCGGACCUCUCCUUAAUGGGAGCUAGCGGAUGAAGUGAUGCAACACUGGAGCCGCUGGGAACUAAUUUGUAUGCGAAAGUAUAUUGAUUAGUUUUGGAGUACUCGUGGUCG
How it was run: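 Library with all eight P1ex-region intron nucleotides randomised, intron inside the knt kanamycin-resistance gene on pET-22b(+), in E. coli BL21(DE3). Cells grew overnight at 37°C or 30°C on LB agar with or without 25 μg/mL kanamycin (plus 100 μg/mL carbenicillin, 50 μM IPTG, 0.2% rhamnose), in six replicate transformations. Pooled colonies were amplicon-sequenced on Illumina HiSeq 2500. DiMSum fitness is the error-weighted combination of wild-type-normalised replicate fold changes, kanamycin versus none.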

Sequence	self-splicing fitness (ln) (30 °C)	self-splicing fitness (ln) (37 °C)
AUACAGCAAUAUUACGGCCU	-0.505 ± 0.093	0.263 ± 0.1
GGGAAGCAAUAUUACGAAUU	-0.943 ± 0.23	-0.115 ± 0.21
UUCAAGCAAUAUUACGUCGU	-2.69 ± 0.15	-1.44 ± 0.14
GUUCAGCAAUAUUACGGCAG	-2.82 ± 0.28	-1.82 ± 0.31
GCCUAGCAAUAUUACGUUUG	-2.89 ± 0.21	-0.761 ± 0.13
UUAAAGCAAUAUUACGUACU	-0.208 ± 0.079	-0.142 ± 0.099
AGCAAGCAAUAUUACGGGCU	-2.45 ± 0.22	-2.09 ± 0.31
AAUAAGCAAUAUUACGAACU	-0.169 ± 0.11	0.509 ± 0.14
GGGGAGCAAUAUUACGGAGG		-1.4 ± 0.35
AUGAAGCAAUAUUACGUGGC	-3.92 ± 0.25	-2.56 ± 0.31
UGAUAGCAAUAUUACGUCUU	-1.22 ± 0.092	-1.33 ± 0.09
AAAGAGCAAUAUUACGUGUA	-3.3 ± 0.16	-2.27 ± 0.22
CAGGAGCAAUAUUACGGCCU	-2.22 ± 0.24	-1.42 ± 0.31
GCCUAGCAAUAUUACGGUCA	-0.989 ± 0.13	-0.494 ± 0.12
GCGAAGCAAUAUUACGGUUU	-3.22 ± 0.13	-1.62 ± 0.13
UGGCAGCAAUAUUACGGUAG	-0.874 ± 0.062	-0.684 ± 0.084
UCAGAGCAAUAUUACGAGAG	-3.72 ± 0.27	-3.27 ± 0.42
UAGAAGCAAUAUUACGGUCG	-0.229 ± 0.1	0.153 ± 0.14
CCCAAGCAAUAUUACGGUAA	-2.25 ± 0.14	-1.4 ± 0.16
GACGAGCAAUAUUACGCUUU	-3.17 ± 0.46	-0.0656 ± 0.19
GACCAGCAAUAUUACGUUGC	-1.78 ± 0.067	-1.56 ± 0.1
ACGCAGCAAUAUUACGUCGG	-1.23 ± 0.067	-1.14 ± 0.1
GAAUAGCAAUAUUACGCGCU	-0.615 ± 0.13	-0.0137 ± 0.15
UGUUAGCAAUAUUACGGAAA		-2.24 ± 0.39
UACAAGCAAUAUUACGGGGG	-2.66 ± 0.14	-2.02 ± 0.13
UCUUAGCAAUAUUACGUACC	-1.26 ± 0.48	-1.53 ± 0.41
CAUUAGCAAUAUUACGUAUU	-4.04 ± 0.4	-2.37 ± 0.27

Sequence	self-splicing fitness (ln) (30 °C)	self-splicing fitness (ln) (37 °C)
AGCAAGCAAUAUUACGCGUU	-2.89 ± 0.17	-2.44 ± 0.19
AAGUAGCAAUAUUACGUUGG	-2.96 ± 0.18	-2.2 ± 0.23
UCCAAGCAAUAUUACGCUUG	-3.72 ± 0.17	-2.11 ± 0.28
GACGAGCAAUAUUACGUUUU	-4.36 ± 0.28	-1.61 ± 0.13
CGAGAGCAAUAUUACGUUGG	-3.78 ± 0.3	-2.48 ± 0.22
AGCAAGCAAUAUUACGGACA	-1.12 ± 0.14	-0.766 ± 0.14
CCGUAGCAAUAUUACGAAUU	-3.75 ± 0.25	-2.85 ± 0.34
UUGGAGCAAUAUUACGCUAG	-2.56 ± 0.23	-1.64 ± 0.2
CGCAAGCAAUAUUACGGCUA	-1.15 ± 0.063	-0.556 ± 0.076
AUUGAGCAAUAUUACGCACG	-3.07 ± 0.37	
GGGGAGCAAUAUUACGCGAG	-1.54 ± 0.43	-0.692 ± 0.24
AAUGAGCAAUAUUACGGUUA	-3.02 ± 0.22	-1.86 ± 0.15
UAGCAGCAAUAUUACGACAC		-2.15 ± 0.33
CAUUAGCAAUAUUACGCCUU	-3.03 ± 0.36	-1.84 ± 0.21
GGGAAGCAAUAUUACGUUAC	-2.75 ± 0.15	-1.15 ± 0.14
AGGCAGCAAUAUUACGGCCU	-3.36 ± 0.18	-2.37 ± 0.24
GCGUAGCAAUAUUACGAAUU	-1.52 ± 0.1	-0.549 ± 0.12
UUGCAGCAAUAUUACGCUAG	-2.94 ± 0.23	-2.44 ± 0.24
UAAAAGCAAUAUUACGCGGC	-3.63 ± 0.47	-2.1 ± 0.31
AGUGAGCAAUAUUACGGGUA	-3.22 ± 0.23	-1.61 ± 0.26
UAGUAGCAAUAUUACGCCUG	-0.198 ± 0.12	-0.437 ± 0.13
UCGCAGCAAUAUUACGUUGU	-2.56 ± 0.2	-1.73 ± 0.21
ACCCAGCAAUAUUACGGCAA	-0.219 ± 0.056	-0.263 ± 0.068
UCUUAGCAAUAUUACGAGUU	-2.85 ± 0.16	-0.665 ± 0.15
ACUGAGCAAUAUUACGUGAU	-3.6 ± 0.14	-1.76 ± 0.097
AAAUAGCAAUAUUACGUUCA	-0.751 ± 0.094	0.187 ± 0.12
UCCAAGCAAUAUUACGAGCA	-0.834 ± 0.08	-0.0464 ± 0.1

Sequence	self-splicing fitness (ln) (30 °C)	self-splicing fitness (ln) (37 °C)
UACUAGCAAUAUUACGUGAC	-2.29 ± 0.13	-1.93 ± 0.26
CCUUAGCAAUAUUACGUAUU	-4.45 ± 0.29	-2.82 ± 0.22
UCUGAGCAAUAUUACGUGUG	-2.15 ± 0.12	-1.51 ± 0.12
GCGGAGCAAUAUUACGUUGC	-4.4 ± 0.42	-2.78 ± 0.34
UAGGAGCAAUAUUACGAUAC	-4.56 ± 0.32	-1.86 ± 0.28
AUACAGCAAUAUUACGGUUG	-2.35 ± 0.097	-0.364 ± 0.093
CCCAAGCAAUAUUACGAACC		-2.59 ± 0.35
CGCGAGCAAUAUUACGGGCG	-3.25 ± 0.24	-3.4 ± 0.42
CAUCAGCAAUAUUACGCGGU	-3.35 ± 0.18	-2.39 ± 0.22
CUUUAGCAAUAUUACGUACG	-0.271 ± 0.098	0.109 ± 0.12
CCGUAGCAAUAUUACGAUAC	-3.22 ± 0.24	
GGCUAGCAAUAUUACGCGCU	-2.76 ± 0.25	-2.42 ± 0.3
AGUGAGCAAUAUUACGCCGA	-1.82 ± 0.31	-2.36 ± 0.4
AACCAGCAAUAUUACGUUCG	-2.59 ± 0.15	-1.63 ± 0.13
CGAAAGCAAUAUUACGGACU	-0.69 ± 0.053	0.357 ± 0.079
AUCUAGCAAUAUUACGUCGG	-3.23 ± 0.2	-2.72 ± 0.27
CCAUAGCAAUAUUACGGGCC		-1.32 ± 0.23
GUAGAGCAAUAUUACGUGCC		-2.12 ± 0.28
CACCAGCAAUAUUACGUGAG	-3.8 ± 0.16	-2.26 ± 0.14
GUCCAGCAAUAUUACGCUCA	-0.307 ± 0.092	-0.112 ± 0.11
GUUGAGCAAUAUUACGUCCA	-2.21 ± 0.34	
GAGGAGCAAUAUUACGACCA	-2.57 ± 0.4	
CCAAAGCAAUAUUACGAGGC	-4.23 ± 0.27	-2.46 ± 0.22
GGCCAGCAAUAUUACGCAAA	-3.09 ± 0.24	-1.02 ± 0.12
UGGCAGCAAUAUUACGUCUC	-1.64 ± 0.11	-0.21 ± 0.13
